Peptide text beside a SMILES is read from it.

The target of data set [1] is T1, BpsA (Streptomyces lavendulae, UniProt Q1MWN4). Description: BpsA-mediated synthesis of indigoidine-related pigments from glutamine analogues. The format is biochemical. Conditions: 4 mM substrate, 1.66 μM BpsA, 25° C., 72 hours. The protocol: For these experiments, BpsA activation was carried out as noted in Example 1. Pre-activated BpsA was incubated at 25° C. for 72 hours in reaction buffer amended with 4 mM of either L-glutamine, L-glycine-L-glutamine (glycyl glutamine), L-alanine-L-glutamine (alanyl glutamine), N-trifluoracetyl-L-glutamine, or no substrate as a control. Pre-activated and buffered BpsA at a final concentration of 1.66 μM was added to a reaction buffer containing 4 mM of each L-glutamine derivative in a final reaction volume of 1000 μL. This was then incubated al 25° C. for 72 hours. Each reaction tube was centrifuged and the supernatant removed. The indigoidine derivatives were then resuspended in 100 μL of 99.9% DMSO to solubilise the precipitated pigment.
The structures of each substrate and the predicted structure of the cyclised indigoidine-like product potentially produced in each reaction are depicted in FIGS. […]. […] The relative absorbance levels of each reaction at the end of the 72 hour incubation period are illustrated in FIG. 8E.

Data set [2] concerns the target T1, BpsA. Description: Activation of apo-BpsA to holo-BpsA by PPTase, read out as indigoidine synthesis (A590). To be noted: in vitro, purified His6-tagged PPTase. Type of data set: biochemical. On the procedure: Apo-BpsA was converted to holo-BpsA in vitro, post-purification, as follows. Purified BpsA and Sfp were obtained by standard Ni/NTA chromatography following their expression as His6-tagged recombinant polypeptides. The bpsA and sfp genes were cloned into and expressed from plasmid pET28a+ in E. coli BL21 (DE3) cells, as described for BpsA and other PPTases by Owell et al (2011), with the modification that BpsA expression and purification was performed in an entD gene-deleted strain of E.coli BL21(DE3). This was done to avoid any activation of BpsA by endogenous EntD PPTase prior to BpsA purification.
Reagents were added to a 15 ml tube. This was vortexed for two seconds and transferred to a 30° C. shaking incubator (200 rpm) for 20 minutes to enable 4′-PP attachment to occur. A negative control was set up in the same manner, omitting Sfp and adding 88.16 μL of ddH2O instead of 84.48 μL of ddH2O.
Indigoidine synthesis reactions were performed in triplicate in a 96 well plate to assess whether activated BpsA was generated. For these reactions, 50 μL of 50 mM Tris-HCl, 10 mM MgCl2 in ddH2O was added to each of six wells. […] The 96 well plate was shaken at 1000 rpm and the A590 values (absorbance at 590 nm) were recorded for each well every twenty seconds for 60 minutes. […]

Data set [3] can be described thus: Stability of BpsA over time on storage. Type of data set: physicochemical. To be noted: 24 weeks. The protocol: To monitor stability of Bps A over time after storage at these conditions, two BpsA samples were stored, one at 25° C. and one at 4° C. The two samples were then compared to recently purified BpsA. The BpsA stored at 4° C. retained 96% activity and the BpsA stored at 25° C. retained 15% activity after 24 weeks compared to the recently purified BpsA.

The nature of data set [4]: BpsA functionality (indigoidine synthesis from L-glutamine) in the presence of DMSO. The format is biochemical. On the procedure: In these experiments, samples of 500 μM L-glutamine were prepared in ddH2O amended with DMSO to a final DMSO concentration (v/v) of either 0%, 10%, 20%, 30% or 35%. A master mix with final reagent concentrations as indicated in Table 5 was prepared and dispensed into 18 wells of a fresh 96 well plate at a volume of 20 μL per well.
To test whether full L-glutamine conversion had been achieved in the presence of DMSO, 180 μL of DMSO heated to 50° C. was then added to each well to completely solubilise the indigoidine. The 96 well plate was then incubated at room temperature with shaking at 2500 rpm for 10 minutes. Following this, a single A590 reading was taken and the average of the triplicate values were graphed (FIG. 5B).

As for `NC(=O)CC[C@H](NC(=O)C(F)(F)F)C(=O)O` [N-trifluoroacetyl-L-glutamine], the “Pigment formation by pre-activated BpsA from the substrate” value in data set [1] is “used to produce indigoidine-like pigments”.
Same read-out and setting: next, `C[C@H](N)C(=O)N[C@@H](CCC(N)=O)C(=O)O` [alanyl glutamine, L-alanine-L-glutamine] (H-Ala-Gln-OH): “used to produce indigoidine-like pigments”; `NCC(=O)N[C@@H](CCC(N)=O)C(=O)O` [glycyl-glutamine, L-glycine-L-glutamine] (H-Gly-Gln-OH): “used to produce indigoidine-like pigments”.

B1: PptT: PPTase from Mycobacterium tuberculosis (protein)
chain: MTVGTLVASVLPATVFEDLAYAELYSDPPGLTPLPEEAPLIARSVAKRRNEFITVRHCARIALDQLGVPPAPILKGDKGEPCWPDGMVGSLTHCAGYRGAVVGRRDAVRSVGIDAEPHDVLPNGVLDAISLPAERADMPRTMPAALHWDRILFCAKEATYKAWFPLTKRWLGFEDAHITFETDSTGWTGRFVSRILIDGSTLSGPPLTTLRGRWSVERGLVLTAIVL
modifications: left off: small tags and cut ends
notes: PPTase from Mycobacterium tuberculosis
For B1, the “Ability of PPTase to activate BpsA” value in data set [2] is given as “similarly able to activate BpsA”.

B2: BpsA: single module non-ribosomal peptide synthetase from Streptomyces lavendulae, SEQ ID NO:2 (protein, listed as Streptomyces lavendulae)
chain: MTLQETSVLEPTLQGTTTLPGLLAQRVAEHPEAIAVAYRDDKLTFRELASRSAALADYLEHLGVSADDCVGLFVEPSIDLMVGAWGILNAGAAYLPLSPEYPEDRLRYMIENSETKIILAQQRLVSRLRELAPKDVTIVTLRESEAFVRPEGTEAPAARSARPDTLAYVIYTSGSTGKPKGVMIEHRSIVNQLGWLRETYAIDRSKVILQKTPMSFDAAQWEILSPANGATVVMGAPGVYADPEGLIETIVKHNVTTLQCVPTLLQGLIDTEKFPECVSLQQIFSGGEALSRLLAIQTTQEMPGRALINVYGPTETTINSSSFPVDPADLDEGPQSISIGSPVHGTTYHILDKETLKPVGVGEIGELYIGGIQLARGYLHRDDLTAERFLEIELEEGAEPVRLYKTGDLGQWNNDGTVQFAGRADNQVKLRGYRVELDEISLAIENHDWVRNAAVIVKNDGRTGFQNLIACIELSEKEAALMDQGNHGSHHASKKSKLQVKAQLSNPGLRDDAELAARPAFDLEGAEPTPEQRARVFARKTYRFYEGGAVTQADLLGLLGATVTAGYSRKAADLAPAELGQILRWFGQYISEERLLPKYGYASPGALYATQMYFELEGVGGLKPGYYYYQPVRHQLVLISEREATGKATAQIHFIGKKSGIEPVYKNNILEVLEIETGHMVGLFEQILPAYGLDIHDRAYEPAVKDLLDVADEDYYLGTFELVPHAGARDDQAEVYVQTHGGKVAGLPEGQYRYENGELTRFSDDIVLKKHVIAINQSVYQAASFGISVYSRAEEEWLKYITLGKKLQHLMMNGLNLGFMSSGYSSKTGNPLPASRRMDAVLGANGVDSAPMYFFVGGRISDEQIGHEGMREDSVHMRGPAELIRDDLVSFLPDYMIPNRVVVFDRLPLSANGKIDVKALAASDQVNAELVERPFVAPRTETEKEIAAVWEKALRRENASVQDDFFESGGNSLIAVGLVRELNARLGVSLPLQSVLESPTIEKLARRLEREVAQESSRFVRLHAETGKARPVICWPGLGGYPMNLRSLAGEIGLGRSFYGVQSYGINEGETPYETITEMAKKDIEALKEIQPAGPYTLWGYSFGARVAFETAYQLEQAGEKVDNLFLIAPGSPKVRAENGKVWGREASFANRGYTTILFSVFTGTISGPDLDRCLETVTDEASFAEFISELKGIDVDLARRIISVVGQTYEFEYSFHELAERTLQAPISIFKAVGDDYSFLENSSGYSAEPPTVIDLDADHYSLLREDIGELVKHIRYLLGE
Turning to B2, the “Activity retained compared to recently purified BpsA” value in data set [3] (stored at 4° C.) came out at 96%; in data set [3] (stored at 25° C.), 15%. Also, in data set [4] (0-35% DMSO v/v, end-point A590 after full solubilisation), the “BpsA activity in the presence of DMSO” value was “impaired at all concentrations of DMSO”. In addition, the “DMSO concentration up to which BpsA retains partial functionality” value in data set [4] (500 μM L-glutamine, DMSO v/v) is on record as “up to 35%”.

B3: Sfp: PPTase from Bacillus subtilis (protein)
chain: MKIYGIYMDRPLSQEENERFMSFISPEKREKCRRFYHKEDAHRTLLGDVLVRSVISRQYQLDKSDIRFSTQEYGKPCIPDLPDAHFNISHSGRWVICAFDSQPIGIDIEKTKPISLEIAKRFFSKTEYSDLLAKDKDEQTDYFYHLWSMKESFIKQEGKGLSLPLDSFSVRLHQDGQVSIELPDSHSPCYIKTYEVDPGYKMAVCAAHPDFPEDITMVSYEELL
modifications: left off: small tags and cut ends
notes: PPTase from Bacillus subtilis
On to B3, for which the “Ability of PPTase to activate BpsA” value in data set [2] is listed as “effective means of pre-activating BpsA”.
